Here are results for 106 substances from the supplement of paper PMC12042874.

± gives the uncertainty stated by the source.

The data set can be described thus: amyloid nucleation score (Sup35N fusion, yeast selection) (log enrichment); library NNK1; higher = more nucleation; inactive = no reads after selection. In outline: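 The nucleation score is the log enrichment of output over input reads, calculated with DiMSum and centred on the mode score of non-aggregating sequences. Sequences with under 100 input reads were excluded. Reads came from Illumina sequencing of plasmid inserts from psi-negative yeast expressing Sup35N fused to peptides of 20 random codons, induced 24 hours with 100 μM copper sulfate and grown 7 days at 30°C without adenine and uracil.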

TTTRVFS showed an amyloid nucleation score of 0.813 ± 0.81. With VGSGSDQQYALMSNLYSKLS the figure was 1.02 ± 0.7; with KLYGLVFFLVYGNDGSKRDL, 0.779 ± 0.36. The result for SWLDLNLIDHQAFAFSSFGL reads -0.043 ± 0.45; that for LSAFNWQGDVNLRECYNVY, -0.337 ± 0.63. The result for NRYSYYFLLI reads 3.16 ± 0.1.

With SMRFYYA, the amyloid nucleation score was 2.97 ± 0.23. The result for IFMRSAERGMRVLLEDDCRT reads 0.256 ± 0.61; that for NACIPQVFCGSLLKFALQLW, 3.28 ± 0.088. With RSQFWHFQWWTKSHNIMGLD the figure was 0.803 ± 1.1. With LQQMIRRLVLRFMAATAL the figure was 0.14 ± 0.37; with NSVYGTIDYGPHCFVNEGNF, “inactive”; with SGFRVKQYMFLCFY, -0.473 ± 0.73. HAKNSRIYSWLFLCSIKWG returned an amyloid nucleation score of 0.396 ± 0.3. With PAATNAWGWRVPDPGSMIPS the figure was -0.3 ± 0.42. With TFSRRASDFEVNV the figure was -1.25 ± 2.7; with ESKVSGIVIFGGVEIAFYRG, 5.22 ± 0.1; with GKVAPFRDSGNIIADGNIHE, -0.219 ± 0.47. With RMGNQYPRSVKWT the figure was -0.029 ± 0.33. As for NQRYHYLAAQWVDSWLVGCS, the amyloid nucleation score was -0.256 ± 0.6. The result for VKSWKLERRMRVAMLDTLVI reads 0.367 ± 1.2; that for SLSLIVVKNGIFLVH, 3.16 ± 0.12. In the case of STFCTSAISMSIGSIIVGLS, the amyloid nucleation score was found to be 0.043 ± 0.62. Consider PHRFVN, for which the amyloid nucleation score is -0.188 ± 0.3.

The substance YYWIYVIPSIFSIF yielded an amyloid nucleation score of 5.5 ± 0.088. With RRTWNWPTWIMRSRRREGHG the figure was 0.368 ± 0.42.

As for NTSSLVMVSCDTPRYTNTEV, the amyloid nucleation score was -1.04 ± 0.72. The result for VTFWDPVVLTTPPKLCI reads -0.946 ± 0.49. The result for AHCLLIALTCCRKNNKNVSC reads 0.902 ± 0.44. VRVQTRHLGDGLPHGQDKCY: the amyloid nucleation score is -0.403 ± 0.52. The result for NLVALNLSNTFPDDV reads 0.04 ± 0.82. As for FITRRSLGCRFPKPKSLRIN, the amyloid nucleation score was -0.012 ± 0.4. The result for WKRSEINDVFVM reads “inactive”. With IMSCDERWN the figure was 0.287 ± 0.23. The result for TTKSLSVSLGGHYYVTRVRR reads 0.81 ± 0.83; that for GHYKGECYSLMNPV, -0.067 ± 1.2. SLPNILLSQPMFRRISSMLQ came in with an amyloid nucleation score of 1.17 ± 0.62. With LFCKSPCYFVMLADKMHIWG the figure was 5.07 ± 0.11. Substance GFYRAERYSRFMRAVGRLSN had an amyloid nucleation score of -0.771 ± 0.76. With FRQFCCV the entry was “inactive”. With YIAQSFELKA the figure was 0.23 ± 0.53.

Consider YCTVVKFLHATFQFSNPLGM, for which the amyloid nucleation score was 1.58 ± 0.48. Substance YSRWER gave an amyloid nucleation score of -0.565 ± 0.39. For the substance VASRFVCWCRGQAQWVSQCN, the amyloid nucleation score came to 0.434 ± 0.45. With ESTGQFYSPGSWVQGWTAYM the figure was 0.398 ± 0.66; with PYFINST, 1.75 ± 0.53; with YVWVGADDFFYRGYVFSRLV, -0.212 ± 1.4.

Regarding RLCEFSSKGASL, the amyloid nucleation score is -0.115 ± 1.1.

Regarding LYVEMEYSFDYYATKDRHQT, the amyloid nucleation score is -0.842 ± 1.7. The result for CIDCYYRVCRFWSDSQAR reads 0.552 ± 0.74.

For FCILFSLIVTVGSLLRFLYR, the amyloid nucleation score was 2.01 ± 0.1. GTGRVLVIAKALNYCCIS showed an amyloid nucleation score of 6.811 ± 0.054.

Substance PAQEA returned an amyloid nucleation score of 0.126 ± 0.45. The result for SLFSWVCRSITGPILRISLR reads 0.73 ± 0.24.

In the case of IGYCSSGQNDPNIASLYCFH, the amyloid nucleation score is -1.19 ± 0.81. With MRLIVNSFTVGYEPRISWYV the figure was 1.22 ± 0.24; with FQPIGSMWNYRSMYVYSTLF, -0.062 ± 0.57. The result for GYFVSMSTDYSLSWRYICSA reads -1.16 ± 0.67.

Substance DQSILRLYAWALRPGELELR returned an amyloid nucleation score of 3.15 ± 0.14.

Turning to SRLGLSSDY, the amyloid nucleation score was found to be 0.092 ± 0.33. The result for YMASYGNLVGMFDAIQVLIV reads 1.08 ± 0.31. With RFRRSLLMYYGTTSVGLLRP the figure was 0.664 ± 1.2; with AFSLR, -0.437 ± 0.57. With VFKCVNFS the entry was “inactive”.

The substance LSWVMRYLPYVVFLSYDQPG gave an amyloid nucleation score of -0.723 ± 0.62.

Consider FLKNEHSYTGWCFSTWPVRY, for which the amyloid nucleation score is 1.95 ± 0.29. Turning to YMPPNGKCSKVCLLRGGDYM, the amyloid nucleation score worked out at 0.719 ± 0.37.

In the case of VVTRYL, the amyloid nucleation score was 0.403 ± 0.36. With NFIRKPFGFIY the figure was -0.282 ± 1.7; with NCTKSSWYGCYT, -0.287 ± 0.35; with NVSEVCKYYPLFRSD, -0.007 ± 0.23. With SFSIGSFSAPLVAERFCCYT, the amyloid nucleation score amounted to 0.163 ± 0.48. With GGLSNSLSTAVQDW the figure was -0.995 ± 0.61.

Regarding SSFDMRDILYLSSNILRSRM, the amyloid nucleation score was -0.505 ± 0.35.

On to CLVIRFILHLSCK, for which the amyloid nucleation score was determined as 0.587 ± 0.54. The result for SEMHHCTRGG reads -0.167 ± 0.9; that for IIRNVTL, 0.263 ± 0.24; that for IFYSSFS, “inactive”. With VWEQLIAE the figure was -0.26 ± 0.84; with MSDKSTWYC, 0.157 ± 0.61. With NHFLYLFVRYYTRLAEHVYA the figure was -0.08 ± 0.56. With YYIRNYVRFRRS, the amyloid nucleation score was -0.797 ± 0.48.

Take SSVFKRMWPLLFVIPRQMH: the amyloid nucleation score worked out at 0.02 ± 0.43.

Take PRSVVSTEPSGTVGVPKENK: the amyloid nucleation score is -0.839 ± 0.62.

With DACMTGSTLTGYLSTDVGLI, the amyloid nucleation score result was “inactive”. For the substance EWLDALKANTIFYWKYGSMI, the amyloid nucleation score is 0.496 ± 0.63. With YMFVMEKARTSIYLSMRNYC the figure was -0.419 ± 0.39; with CQFYWLTGPCMRRLRCGSVQ, 0.052 ± 0.36; with QKVHANSMM, 0.973 ± 0.9. The result for DTSFYIMLNYITIQYNSFAG reads 7.86 ± 0.054. On to MLCVGKA, for which the amyloid nucleation score was -1.16 ± 0.64.

For QHKTRQYHVSPVRVTIL, the amyloid nucleation score stood at 0.135 ± 0.65.

In turn, AVDMTWYIVVSMLHMLDASV had an amyloid nucleation score of 1.26 ± 0.76. In turn, SFVYS registered an amyloid nucleation score of -0.157 ± 0.4. The result for TLDRWTVWDLR reads 0.275 ± 0.32; that for MIVILTGLLSTNGNLS, 1.64 ± 0.39; that for SGFENRDSIPIAPCIRLLLV, -0.056 ± 0.59. With LCFMILNGGRQSQAQKDSYV the figure was 0.086 ± 0.4; with CNGAGNLEGDGF, 0.317 ± 0.33. The result for VLYELSKMGYRVLLYTHPDR reads 0.125 ± 0.46; that for IYWRILEL, -0.034 ± 0.85. Turning to YGLFWN, the amyloid nucleation score is -1.37 ± 1.5.

Take KFFLRNGVAGTTVLLVQGLQ: the amyloid nucleation score entry was “inactive”. With TLTYPMCGSIG the figure was 1.09 ± 0.47; with CHSTGGT, -0.468 ± 1.9; with SPNLI, 0.344 ± 0.9.
